Measured values as given in the supplement of paper PMC5998384.

Legend:
HeLa Kyoto [1] = experiment: solubility change mitosis vs G1/S (difference of NP-40 vs SDS log2 ratios) (log2 ratio difference); higher = more soluble in mitosis
HeLa Kyoto [2] = experiment: thermal stability score vs G1/S (z-score of summed log2 fold changes over temperatures); higher = more thermally stable than in G1/S
HeLa Kyoto [3] = experiment: melting temperature (median over replicates), in situ; higher = more thermally stable
HeLa Kyoto [4] = experiment: solubility in G1/S (NP-40 vs SDS abundance) (log2 ratio); higher = more soluble; conditions: cell cycle stage: G1/S
[5] = cell cycle stage: early G1 (4.5 h after nocodazole release)
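Wherever melting temperature (median over replicates), in situ is given: HeLa Kyoto cells synchronized by double thymidine or nocodazole block, proteins quantified by TMT10plex mass spectrometry, three independent biological replicates.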
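Wherever solubility change mitosis vs G1/S (difference of NP-40 vs SDS log2 ratios) is given: synchronized HeLa Kyoto cells (double thymidine block for G1/S, nocodazole release for mitosis), protein amounts in NP-40 versus SDS lysates quantified by mass spectrometry, three biological replicates.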
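Wherever solubility in G1/S (NP-40 vs SDS abundance) is given: HeLa Kyoto cells arrested at G1/S by double thymidine block, proteins quantified by TMT10plex mass spectrometry in mild NP-40 versus SDS extracts, three biological replicates.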
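Wherever thermal stability score vs G1/S (z-score of summed log2 fold changes over temperatures) is given: synchronized HeLa Kyoto cells, proteins quantified by TMT10plex mass spectrometry, three biological replicates, mitosis taken 0.5 h after nocodazole release, G1/S directly after double thymidine block.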

Sequence of BRD2 (chain, as listed by the source): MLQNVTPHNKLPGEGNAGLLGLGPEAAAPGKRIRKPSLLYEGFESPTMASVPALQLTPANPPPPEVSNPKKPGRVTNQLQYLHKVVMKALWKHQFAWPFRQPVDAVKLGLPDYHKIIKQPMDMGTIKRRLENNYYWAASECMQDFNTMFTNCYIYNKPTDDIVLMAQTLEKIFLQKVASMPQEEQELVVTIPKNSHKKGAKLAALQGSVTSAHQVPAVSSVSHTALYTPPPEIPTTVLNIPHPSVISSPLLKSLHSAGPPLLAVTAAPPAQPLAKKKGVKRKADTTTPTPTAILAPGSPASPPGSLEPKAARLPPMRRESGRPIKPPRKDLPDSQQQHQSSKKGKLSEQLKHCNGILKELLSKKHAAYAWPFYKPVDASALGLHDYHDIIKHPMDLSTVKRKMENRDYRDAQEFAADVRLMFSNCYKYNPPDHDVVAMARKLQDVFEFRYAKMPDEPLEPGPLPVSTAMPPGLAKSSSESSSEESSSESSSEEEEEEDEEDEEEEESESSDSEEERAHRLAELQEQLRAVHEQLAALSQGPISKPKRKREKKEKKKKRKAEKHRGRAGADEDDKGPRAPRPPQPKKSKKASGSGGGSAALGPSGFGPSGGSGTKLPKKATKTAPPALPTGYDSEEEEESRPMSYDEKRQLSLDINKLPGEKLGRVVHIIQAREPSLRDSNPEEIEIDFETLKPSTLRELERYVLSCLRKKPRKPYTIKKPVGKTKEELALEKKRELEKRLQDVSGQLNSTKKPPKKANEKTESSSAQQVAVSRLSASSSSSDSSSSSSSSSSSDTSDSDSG
Sequence of CREBBP (chain, as listed by the source): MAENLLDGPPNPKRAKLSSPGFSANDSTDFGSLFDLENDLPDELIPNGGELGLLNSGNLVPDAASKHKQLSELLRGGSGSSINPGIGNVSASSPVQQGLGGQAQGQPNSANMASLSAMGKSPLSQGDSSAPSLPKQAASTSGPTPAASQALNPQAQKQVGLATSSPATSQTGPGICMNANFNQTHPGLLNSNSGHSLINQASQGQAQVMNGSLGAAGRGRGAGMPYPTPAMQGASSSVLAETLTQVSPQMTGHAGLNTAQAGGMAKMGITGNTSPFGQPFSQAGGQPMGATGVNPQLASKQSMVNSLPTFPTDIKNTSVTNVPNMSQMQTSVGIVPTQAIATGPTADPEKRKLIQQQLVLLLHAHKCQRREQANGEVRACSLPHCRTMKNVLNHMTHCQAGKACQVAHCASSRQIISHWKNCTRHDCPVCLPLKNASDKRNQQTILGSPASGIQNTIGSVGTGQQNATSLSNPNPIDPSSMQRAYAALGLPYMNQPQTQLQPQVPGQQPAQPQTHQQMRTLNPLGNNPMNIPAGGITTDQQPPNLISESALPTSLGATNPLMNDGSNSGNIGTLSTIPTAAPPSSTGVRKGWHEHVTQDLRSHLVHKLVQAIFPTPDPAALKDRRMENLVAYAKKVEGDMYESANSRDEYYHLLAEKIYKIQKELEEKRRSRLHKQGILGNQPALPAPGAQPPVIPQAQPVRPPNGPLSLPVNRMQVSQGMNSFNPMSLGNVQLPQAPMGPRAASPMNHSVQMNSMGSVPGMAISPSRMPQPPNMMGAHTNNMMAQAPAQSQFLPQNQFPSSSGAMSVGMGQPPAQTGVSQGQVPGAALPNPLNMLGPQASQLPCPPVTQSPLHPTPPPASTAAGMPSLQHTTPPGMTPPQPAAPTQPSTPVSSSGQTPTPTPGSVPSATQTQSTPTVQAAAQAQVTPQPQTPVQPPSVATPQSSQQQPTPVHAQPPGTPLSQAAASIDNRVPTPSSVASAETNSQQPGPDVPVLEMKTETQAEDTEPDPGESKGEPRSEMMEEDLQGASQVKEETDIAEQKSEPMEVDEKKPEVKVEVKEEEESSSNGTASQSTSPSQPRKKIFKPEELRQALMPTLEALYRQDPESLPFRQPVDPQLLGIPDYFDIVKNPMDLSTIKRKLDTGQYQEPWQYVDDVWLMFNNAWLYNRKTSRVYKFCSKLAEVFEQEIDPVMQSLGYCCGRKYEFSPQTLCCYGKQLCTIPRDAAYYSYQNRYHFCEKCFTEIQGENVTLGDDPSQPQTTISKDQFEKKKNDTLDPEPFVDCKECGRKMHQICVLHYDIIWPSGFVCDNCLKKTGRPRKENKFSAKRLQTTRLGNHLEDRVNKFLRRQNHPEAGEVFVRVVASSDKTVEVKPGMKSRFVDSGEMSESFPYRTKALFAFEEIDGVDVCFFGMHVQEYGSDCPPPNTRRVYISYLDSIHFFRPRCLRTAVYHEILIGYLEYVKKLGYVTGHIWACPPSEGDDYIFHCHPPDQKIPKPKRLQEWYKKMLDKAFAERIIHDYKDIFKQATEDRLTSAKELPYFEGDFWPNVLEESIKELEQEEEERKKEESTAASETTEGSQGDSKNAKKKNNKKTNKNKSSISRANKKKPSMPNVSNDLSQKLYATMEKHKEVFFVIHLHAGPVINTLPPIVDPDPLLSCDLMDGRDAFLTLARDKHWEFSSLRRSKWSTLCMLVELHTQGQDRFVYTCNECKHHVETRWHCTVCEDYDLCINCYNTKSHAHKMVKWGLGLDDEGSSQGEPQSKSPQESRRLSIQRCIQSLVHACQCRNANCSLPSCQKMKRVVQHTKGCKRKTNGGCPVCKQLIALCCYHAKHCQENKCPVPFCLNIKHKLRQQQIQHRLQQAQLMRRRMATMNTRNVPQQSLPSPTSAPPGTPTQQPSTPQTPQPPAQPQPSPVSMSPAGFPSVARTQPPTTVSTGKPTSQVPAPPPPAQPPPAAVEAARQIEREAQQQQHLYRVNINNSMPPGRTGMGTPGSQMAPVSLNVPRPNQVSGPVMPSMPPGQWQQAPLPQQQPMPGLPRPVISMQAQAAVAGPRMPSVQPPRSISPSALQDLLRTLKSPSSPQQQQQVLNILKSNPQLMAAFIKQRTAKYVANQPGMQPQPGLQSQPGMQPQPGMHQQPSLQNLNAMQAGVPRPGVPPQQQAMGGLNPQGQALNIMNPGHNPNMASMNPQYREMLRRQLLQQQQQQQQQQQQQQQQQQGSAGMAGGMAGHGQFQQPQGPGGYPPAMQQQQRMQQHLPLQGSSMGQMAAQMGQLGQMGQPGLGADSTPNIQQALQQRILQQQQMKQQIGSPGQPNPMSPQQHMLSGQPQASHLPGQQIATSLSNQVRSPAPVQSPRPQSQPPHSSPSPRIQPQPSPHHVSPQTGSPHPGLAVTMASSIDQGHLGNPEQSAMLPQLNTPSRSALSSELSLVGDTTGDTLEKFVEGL
Sequence of FXR1 (chain, as listed by the source): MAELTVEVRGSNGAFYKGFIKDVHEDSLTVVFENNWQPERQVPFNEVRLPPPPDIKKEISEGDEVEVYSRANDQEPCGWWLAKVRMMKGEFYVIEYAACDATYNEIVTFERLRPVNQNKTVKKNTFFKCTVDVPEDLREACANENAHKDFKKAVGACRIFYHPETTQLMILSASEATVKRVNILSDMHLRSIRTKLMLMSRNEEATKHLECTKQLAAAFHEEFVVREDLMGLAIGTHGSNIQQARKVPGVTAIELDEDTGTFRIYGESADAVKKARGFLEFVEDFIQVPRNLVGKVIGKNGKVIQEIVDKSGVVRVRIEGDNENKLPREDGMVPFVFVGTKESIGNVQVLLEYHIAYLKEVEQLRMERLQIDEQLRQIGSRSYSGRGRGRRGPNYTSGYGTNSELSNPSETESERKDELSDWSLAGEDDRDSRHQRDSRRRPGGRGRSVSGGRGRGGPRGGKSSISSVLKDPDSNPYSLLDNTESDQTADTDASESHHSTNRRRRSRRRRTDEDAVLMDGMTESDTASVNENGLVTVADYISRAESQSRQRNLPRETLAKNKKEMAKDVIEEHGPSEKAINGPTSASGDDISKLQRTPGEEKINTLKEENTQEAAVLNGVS
Sequence of AGO2 (chain, as listed by the source): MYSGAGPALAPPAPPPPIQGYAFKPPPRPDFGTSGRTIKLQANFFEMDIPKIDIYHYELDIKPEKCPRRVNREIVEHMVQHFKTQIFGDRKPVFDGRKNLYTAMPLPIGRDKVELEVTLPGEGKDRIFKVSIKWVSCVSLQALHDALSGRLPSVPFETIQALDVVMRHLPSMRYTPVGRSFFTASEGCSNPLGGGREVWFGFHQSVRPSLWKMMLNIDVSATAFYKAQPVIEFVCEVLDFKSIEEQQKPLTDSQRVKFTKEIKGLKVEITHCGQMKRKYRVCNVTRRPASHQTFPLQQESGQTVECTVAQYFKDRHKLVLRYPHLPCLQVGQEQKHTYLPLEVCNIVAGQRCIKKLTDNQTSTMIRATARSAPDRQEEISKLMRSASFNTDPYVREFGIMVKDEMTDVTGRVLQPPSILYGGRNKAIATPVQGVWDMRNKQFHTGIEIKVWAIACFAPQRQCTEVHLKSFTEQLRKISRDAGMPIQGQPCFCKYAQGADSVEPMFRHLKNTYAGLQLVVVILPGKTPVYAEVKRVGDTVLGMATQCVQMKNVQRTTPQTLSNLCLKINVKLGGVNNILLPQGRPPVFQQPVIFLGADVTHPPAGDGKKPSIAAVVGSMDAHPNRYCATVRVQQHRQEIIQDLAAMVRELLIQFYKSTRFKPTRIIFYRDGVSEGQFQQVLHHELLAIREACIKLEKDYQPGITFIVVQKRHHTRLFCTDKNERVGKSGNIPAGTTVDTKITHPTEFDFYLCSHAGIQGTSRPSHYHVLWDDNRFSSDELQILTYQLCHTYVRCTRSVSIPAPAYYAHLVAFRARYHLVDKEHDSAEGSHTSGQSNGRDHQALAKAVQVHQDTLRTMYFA
Sequence of C1GALT1 (chain, as listed by the source): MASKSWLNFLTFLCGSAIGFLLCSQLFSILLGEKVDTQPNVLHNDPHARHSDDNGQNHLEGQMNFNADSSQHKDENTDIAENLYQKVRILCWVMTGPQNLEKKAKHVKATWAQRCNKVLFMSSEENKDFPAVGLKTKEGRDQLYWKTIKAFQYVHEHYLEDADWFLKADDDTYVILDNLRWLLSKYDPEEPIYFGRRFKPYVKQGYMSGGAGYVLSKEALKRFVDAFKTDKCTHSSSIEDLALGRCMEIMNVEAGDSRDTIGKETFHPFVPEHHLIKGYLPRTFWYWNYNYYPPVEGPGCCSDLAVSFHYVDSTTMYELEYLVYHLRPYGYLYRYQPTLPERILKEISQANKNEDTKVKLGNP

| Substance | solubility change mitosis (log2) (HeLa Kyoto [1]) | thermal stability score (HeLa Kyoto [2]; [5]) | thermal stability score (HeLa Kyoto [2]; cell cycle stage: mitosis) | melting temperature (HeLa Kyoto [3]; cell cycle stage: G1/S) [°C] | melting temperature (HeLa Kyoto [3]; cell cycle stage: mitosis) [°C] | solubility in G1/S (log2) (HeLa Kyoto [4]) |
| --- | --- | --- | --- | --- | --- | --- |
| ABCC1 | -0.0751 | -0.781 | -0.316 | 54.5 | 53.7 | 0.0337 |
| AGO2 | 0.0495 | 2.34 | -0.539 | 51.5 | 52.6 | -0.133 |
| AKAP13 | -0.118 | -0.167 | 1.43 | 50.6 | 49.6 | -0.0395 |
| ALDH6A1 | -0.072 | 0.0292 | 0.822 | 49.3 | 49.9 | 0.179 |
| ANKHD1 | -0.0108 | 0.478 | 1.9 | 47.9 | 49.4 | -0.0494 |
| ASAP1 | -0.0861 | 0.472 | 0.143 | 50.5 | 51.1 | 0.0639 |
| ATP5H | 0.46 | -5.39 | -6.92 | 54.9 | 52.9 | 0.0908 |
| ATP7A | -0.147 | -0.475 | -0.996 | 51.7 | 51.1 | 0.00927 |
| ATR | -0.097 | -0.0687 | 0.0624 | 50.7 | 50.5 | -0.368 |
| BCOR | 0.38 | 0.368 | 1.08 | 47.6 | 50.1 | -0.157 |
| BRD2 | 0.202 | 0.901 | 2.29 | 47.9 | 49.1 | -0.0635 |
| BTAF1 | -0.118 | 0.553 | 1.71 | 50 | 50.1 | -0.142 |
| C1GALT1 | -0.0544 | -1.2 | 0.982 | 53.7 | 53.6 | 0.222 |
| C20ORF27 | -0.035 | -0.424 | -1.13 | 53.3 | 54.8 | 0.205 |
| CC2D1A | -0.0691 | 0.931 | 0.615 | 49.7 | 49.6 | 0.298 |
| CENPF | 0.109 | 2.12 | 0.418 | 48.9 | 49.7 | -0.00455 |
| CIAPIN1 | -0.0971 | 0.785 | 3.13 | 50.7 | 51.7 | 0.471 |
| CLTC | -0.171 | -1.37 | 1.15 | 51.4 | 50.6 | -0.168 |
| COL4A2 | 0.0703 | 0.58 | -0.541 | 53.4 | 55.3 | 0.038 |
| CREBBP | 0.0153 | -0.935 | -0.841 | 52 | 53.2 | -0.265 |
| DHX9 | 0.211 | 1.02 | 2.63 | 50.5 | 50.5 | -0.671 |
| DOCK9 | -0.156 | -0.162 | -0.395 | 51.4 | 50.6 | -0.203 |
| DSP | -0.0238 | -3.13 | 0.479 | 46.7 | 46.6 | -0.687 |
| EIF4G3 | -0.178 | 0.306 | 2.44 | 49.1 | 49.4 | 0.109 |
| EPPK1 | 0.311 | -7.26 | -8.82 | – | 51.3 | -2.27 |
| ERH | 0.912 | -4.51 | -3.17 | 52.5 | 51.6 | -2.12 |
| FASN | -0.203 | -0.721 | 0.266 | 52.1 | 51.8 | -0.0375 |
| FLNA | -0.105 | -0.0595 | 2.86 | 50.2 | 50.3 | -0.000309 |

| Substance | solubility change mitosis (log2) (HeLa Kyoto [1]) | thermal stability score (HeLa Kyoto [2]; [5]) | thermal stability score (HeLa Kyoto [2]; cell cycle stage: mitosis) | melting temperature (HeLa Kyoto [3]; cell cycle stage: G1/S) [°C] | melting temperature (HeLa Kyoto [3]; cell cycle stage: mitosis) [°C] | solubility in G1/S (log2) (HeLa Kyoto [4]) |
| --- | --- | --- | --- | --- | --- | --- |
| FRYL | -0.116 | -0.342 | 0.441 | 49.7 | 52.1 | -0.239 |
| FXR1 | 0.215 | -2.47 | 2.23 | 50.3 | 50.8 | -0.859 |
| GCHFR | 0.498 | -1.12 | -0.945 | 55 | 59.7 | 0.27 |
| GOLGA4 | -0.133 | 0.946 | 2.53 | 48.5 | 49.2 | 0.348 |
| HDGF | 0.219 | -2.27 | -3.47 | 53.5 | 53.2 | 0.426 |
| HERC2 | 0.00915 | 0.138 | 0.405 | 51.3 | 50 | -0.443 |
| ILF2 | 0.0511 | -1.61 | -1.98 | 54.6 | 53.3 | -0.141 |
| IQGAP3 | 0.191 | 0.51 | 1.12 | 47.8 | 48.1 | -0.395 |
| IRF2BP2 | -0.0308 | -0.348 | -1.16 | 53 | 52.6 | 0.391 |
| ITSN1 | -0.0764 | -0.00548 | 0.39 | 49.5 | 50.2 | 0.0319 |
| JMJD1C | -0.0573 | 0.98 | 0.156 | 50.2 | 50.7 | -0.105 |
| KIF13A | -0.102 | -0.212 | -0.151 | 51.9 | 51.4 | -0.0515 |
| KIF14 | -0.0203 | -0.945 | -2.77 | 49.1 | 45.5 | -0.297 |
| LACTB2 | -0.0335 | -2.61 | -0.348 | 57.7 | 56.1 | 0.418 |
| LAMA5 | 0.0689 | 1.64 | 3.23 | 53.3 | 54.1 | -0.331 |
| LARS | -0.14 | -0.182 | 2.83 | 49 | 49.1 | -0.189 |
| LRBA | -0.148 | -0.555 | -0.768 | 51.2 | 51.2 | -0.115 |
| LSM3 | 0.115 | -1.12 | -1.32 | 55.4 | 53.4 | 0.0123 |
| LSM14A | -0.186 | -0.955 | -1.78 | 51.8 | 51.6 | 0.131 |
| MVNSSRVQPQQPGDAKRPPAPRAPDPGRLMAGCAAVGASLAAPGGLCEQRGLEIEMQRIRQAAARDPPAGAAASPSPPLSSCSRQAWSRDNPGFEAEEEEEEVEGEEGGMVVEMDVEWRPGSRRSAASSAVSSVGARSRGLGGYHGAGHPSGRRRRREDQGPPCPSPVGGGDPLHRHLPLEGQPPRVAWAERLVRGLRGLWGTRLMEESSTNREKYLKSVLRELVTYLLFLIVLCILTYGMMSSNVYYYTRMMSQLFLDTPVSKTEKTNFKTLSSMEDFWKFTEGSLLDGLYWKMQPSNQTEADNRSFIFYENLLLGVPRIRQLRVRNGSCSIPQDLRDEIKECYDVYSVSSEDRAPFGPRNGTAWIYTSEKDLNGSSHWGIIATYSGAGYYLDLSRTREETAAQVASLKKNVWLDRGTRATFIDFSVYNANINLFCVVRLLVEFPATGGVIPSWQFQPLKLIRYVTTFDFFLAACEIIFCFFIFYYVVEEILEIRIHKLHYFRSFWNCLDVVIVVLSVVAIGINIYRTSNVEVLLQFLEDQNTFPNFEHLAYWQIQFNNIAAVTVFFVWIKLFKFINFNRTMSQLSTTMSRCAKDLFGFAIMFFIIFLAYAQLAYLVFGTQVDDFSTFQECIFTQFRIILGDINFAEIEEANRVLGPIYFTTFVFFMFFILLNMFLAIINDTYSEVKSDLAQQKAEMELSDLIRKGYHKALVKLKLKKNTVDDISESLRQGGGKLNFDELRQDLKGKGHTDAEIEAIFTKYDQDGDQELTEHEHQQMRDDLEKEREDLDLDHSSLPRPMSSRSFPRSLDDSEEDDDEDSGHSSRRRGSISSGVSYEEFQVLVRRVDRMEHSIGSIVSKIDAVIVKLEIMERAKLKRREVLGRLLDGVAEDERLGRDSEIHREQMERLVREELERWESDDAASQISHGLGTPVGLNGQPRPRSSRPSSSQSTEGMEGAGGNGSSNVHV [PKD2] | -0.0995 | – | – | 52.1 | – | 0.00411 |
| MVPGSEGPARAGSVVADVVFVIEGTANLGPYFEGLRKHYLLPAIEYFNGGPPAETDFGGDYGGTQYSLVVFNTVDCAPESYVQCHAPTSSAYEFVTWLDGIKFMGGGGESCSLIAEGLSTALQLFDDFKKMREQIGQTHRVCLLICNSPPYLLPAVESTTYSGCTTENLVQQIGERGIHFSIVSPRKLPALRLLFEKAAPPALLEPLQPPTDVSQDPRHMVLVRGLVLPVGGGSAPGPLQSKQPVPLPPAAPSGATLSAAPQQPLPPVPPQYQVPGNLSAAQVAAQNAVEAAKNQKAGLGPRFSPITPLQQAAPGVGPPFSQAPAPQLPPGPPGAPKPPPASQPSLVSTVAPGSGLAPTAQPGAPSMAGTVAPGGVSGPSPAQLGAPALGGQQSVSNKLLAWSGVLEWQEKPKPASVDANTKLTRSLPCQVYVNHGENLKTEQWPQKLIMQLIPQQLLTTLGPLFRNSRMVQFHFTNKDLESLKGLYRIMGNGFAGCVHFPHTAPCEVRVLMLLYSSKKKIFMGLIPYDQSGFVNGIRQVITNHKQVQQQKLEQQQRGMGGQQAPPGLGPILEDQARPSQNLLQLRPPQPQPQGTVGASGATGQPQPQGTAQPPPGAPQGPPGAASGPPPPGPILRPQNPGANPQLRSLLLNPPPPQTGVPPPQASLHHLQPPGAPALLPPPHQGLGQPQLGPPLLHPPPAQSWPAQLPPRAPLPGQMLLSGGPRGPVPQPGLQPSVMEDDILMDLI [MED25] | -0.172 | – | – | 52.1 | 50.9 | 0.612 |
| MVTEQEVDAIGQTLVDPKQPLQARFRALFTLRGLGGPGAIAWISQAFDDDSALLKHELAYCLGQMQDARAIPMLVDVLQDTRQEPMVRHEAGEALGAIGDPEVLEILKQYSSDPVIEVAETCQLAVRRLEWLQQHGGEPAAGPYLSVDPAPPAEERDVGRLREALLDESRPLFERYRAMFALRNAGGEEAALALAEGLHCGSALFRHEVGYVLGQLQHEAAVPQLAAALARCTENPMVRHECAEALGAIARPACLAALQAHADDPERVVRESCEVALDMYEHETGRAFQYADGLEQLRGAPS [DOHH] | 0.308 | – | – | 50.3 | 50.6 | 0.137 |
| MWVCSTLWRVRTPARQWRGLLPASGCHGPAASSYSASAEPARVRALVYGHHGDPAKVVELKNLELAAVRGSDVRVKMLAAPINPSDINMIQGNYGFLPELPAVGGNEGVAQVVAVGSNVTGLKPGDWVIPANAGLGTWRTEAVFSEEALIQVPSDIPLQSAATLGVNPCTAYRMLMDFEQLQPGDSVIQNASNSGVGQAVIQIAAALGLRTINVVRDRPDIQKLSDRLKSLGAEHVITEEELRRPEMKNFFKDMPQPRLALNCVGGKSSTELLRQLARGGTMVTYGGMAKQPVVASVSLLIFKDLKLRGFWLSQWKKDHSPDQFKELILTLCDLIRRGQLTAPACSQVPLQDYQSALEASMKPFISSKQILTM [MECR] | -0.0123 | – | – | 55 | 54.1 | 0.282 |
| PTPRS | -0.268 | – | – | 51.6 | – | 0.148 |
| RCOR3 | 0.101 | – | – | 49.1 | 50 | 0.375 |
| USP32 | -0.0623 | – | – | 50.4 | 50.3 | -0.319 |
| ZFHX3 | 0.302 | – | – | 48.7 | 49.3 | -0.242 |
